According to US20220411514A1, “ANTI-GAL3 ANTIBODIES AND METHODS OF USE FOR INSULIN RESISTANCE” (TrueBinding, Inc., priority 2021, published 2022):
Positions count from the first letter of the chain named.

B1: 2D10.2B2 (antibody, V domains shown)
VH: QVQLQQSGPELVKPGASVKISCKASGYTFTDYYINWVKQRPGQGLEWIGWIYPGSNDTKYNEKFKGKATLTVDTSSSTAYMQLGSLTSEDSAVYFCANYFGCSGWFFDVWGTGTTVTVSS
VL: DIVMTQAAFSNPVTLGTSASISCRSSKSLLHSDGITYLYWYLQRPGQSPQLLIYRMSNLASGVPDRFSGSGSGTDFTLRISRVEAEDVGVYYCAQMIEFPLTFGAGTILELKR
B2: 4A11.2B5 (antibody, V domains shown)
VH: QVQLQQSGPELVKPGASVKISCKASGYSFTNYYIHWVKQRPGQGLEWIGWIYPGSGNTNYNEKFKGKATLTADTSSSTTNMQLSSLTSEDSAVYYCSTAPGGFDVWGSGTTVTVSS
VL: B1 VL with I97L, I108K
B3: 6H6.2D6 (antibody, V domains shown)
VH: QIQLVQSGPELKKPGETVKISCKASGYTFTTYGMSWVKQAPGKGLKWMAWINTYSGVPTYADDFKGRFAFSLETSASTAYLQINNLTNEDTATYFCARGPYAMDYWGQGTSVTVSS
VL: DIQMTQTTSSLSASLGDRVTISCSASQGISNYLNWYQQKPDGTVKLLIYYTSSLHSGVPSRFSGSGSGTDYSLTISNLEPEDIATYYCQQYSELPYTFGSGTKLEIKR
B4: 20D11.2C6 (antibody, V domains shown)
VH: EVQLQQSGPELVKPGASVKISCKASGYTFTDFYINWVKQSHGKSLEWIGDINPKNGGINYNPKFKIKATLTVDKSSSTSYMDLRGLTSEDSAVYYCTSGYGFPYWGQGTLVTVSA
VL: DIQMNQSPSSLSASLGDTITITCRASQNIYIWLSWYQQKPGNIPKLLIYKASNLHTGVPSRFSGSGSGTDFTLTISTLQPEDIATYFCLQGQSYPLTFGAGTKLEMKR

What follows are binders tested against Human Galectin-3 protein (Acro Biosystems, GA3-H5129) (human) (UniProt P17931) (assay: ELISA, INSR binding to coated Gal3 with 3 ug/mL antibody).
Chain of Human Galectin-3 protein (Acro Biosystems, GA3-H5129) (human) (P17931 2-250): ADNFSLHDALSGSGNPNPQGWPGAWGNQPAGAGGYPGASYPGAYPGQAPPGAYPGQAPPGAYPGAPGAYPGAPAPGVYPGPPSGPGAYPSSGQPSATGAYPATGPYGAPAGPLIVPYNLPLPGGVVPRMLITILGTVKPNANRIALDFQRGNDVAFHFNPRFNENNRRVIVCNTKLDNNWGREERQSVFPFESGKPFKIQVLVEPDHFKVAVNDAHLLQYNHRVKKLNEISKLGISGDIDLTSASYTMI

Gal3-INSR binding left, % of unblocked sample, < 5%:
B1
B2
B3
B4
